Patent US20200199241A1 (Chugai, published 2020)
Substitutions are numbered along the chain they refer to.

B1: IgG1-F1058 (antibody)
heavy: QVQLQESGPGLVKPSETLSLTCAVSGHSISHDHAWSWVRQPPGEGLEWIGFISYSGITNYNPSLQGRVTISRDNSKNTLYLQMNSLRAEDTAVYYCARSLARTTAMDYWGEGTLVTVSSASTKGPSVFPLAPSSKSTSGGTAALGCLVKDYFPEPVTVSWNSGALTSGVHTFPAVLQSSGLYSLSSVVTVPSSSLGTQTYICNVNHKPSNTKVDKKVEPKSCDKTHTCPPCPAPELLGGPSVFLFPPKPKDTLYISRTPEVTCVVVDVSHEDPEVKFNWYVDGVEVHNAKTKPREEQYNSTYRVVSVLTVLHQDWLNGKEYKCKVSNKALPAPIEKTISKAKGQPREPQVYTLPPSRDELTKNQVSLTCLVKGFYPSDIAVEWESNGEPENNYKTTPPVLDSDGSFFLYSKLTVDKSRWQQGNVFSCSVMHEALHYHVTQKSLSLSP
light: not shown
notes: EU numbering; copies: 2 + 2
B2: IgG1-F1095 (antibody)
heavy: B1 heavy with S385N, G387S, E388Q, V438Y
light: not shown
notes: EU numbering; copies: 2 + 2
B3: IgG1-F1103 (antibody)
heavy: B1 heavy with S241D, T309Q, Q313A, K328D, L330Y, E388Q, V438Y
light: not shown
notes: EU numbering; copies: 2 + 2
B4: IgG1-F1096 (antibody)
heavy: B1 heavy with E388T, V438Y
light: not shown
notes: EU numbering; copies: 2 + 2
B5: IgG1-F1097 (antibody)
heavy: B1 heavy with G387N, E388Q, P389S, V438Y
light: not shown
notes: EU numbering; copies: 2 + 2
B6: IgG1-F1111 (antibody)
heavy: B1 heavy with E388Q, S426K
light: not shown
notes: EU numbering; copies: 2 + 2
B7: IgG1-F1112 (antibody)
heavy: B1 heavy with E388Q, Q440K
light: not shown
notes: EU numbering; copies: 2 + 2
B8: IgG1-F1101 (antibody)
heavy: B1 heavy with S241D, T309Q, Q313A, E388Q, V438Y
light: not shown
notes: EU numbering; copies: 2 + 2
B9: IgG1-F1116 (antibody)
heavy: B1 heavy with T309Q, Q313A, E388Q, S426N, V438Y
light: not shown
notes: EU numbering; copies: 2 + 2
B10: IgG1-F1061 (antibody)
heavy: B1 heavy with E388Q, P389E
light: not shown
notes: EU numbering; copies: 2 + 2
B11: IgG1-F1080 (antibody)
heavy: B1 heavy with E388Q, S426N, V438Y
light: not shown
notes: EU numbering; copies: 2 + 2
B12: IgG1-F1107 (antibody)
heavy: B1 heavy with E388Q, V424D
light: not shown
notes: EU numbering; copies: 2 + 2
B13: IgG1-F1073 (antibody)
heavy: B1 heavy with E388Q, S442R
light: not shown
notes: EU numbering; copies: 2 + 2
B14: IgG1-F1059 (antibody)
heavy: B1 heavy with E388R
light: not shown
notes: EU numbering; copies: 2 + 2
B15: IgG1-F1083 (antibody)
heavy: B1 heavy with E388Q, V438Y, S442N
light: not shown
notes: EU numbering; copies: 2 + 2
B16: IgG1-F1065 (antibody)
heavy: B1 heavy with E388Q, V424R
light: not shown
notes: EU numbering; copies: 2 + 2
B17: IgG1-F1108 (antibody)
heavy: B1 heavy with E388Q, V424K
light: not shown
notes: EU numbering; copies: 2 + 2
B18: IgG1-F1062 (antibody)
heavy: B1 heavy with E388Q, P389R
light: not shown
notes: EU numbering; copies: 2 + 2
B19: IgG1-F1110 (antibody)
heavy: B1 heavy with E388Q, V424Q
light: not shown
notes: EU numbering; copies: 2 + 2
B20: IgG1-F1068 (antibody)
heavy: B1 heavy with E388Q, S426R
light: not shown
notes: EU numbering; copies: 2 + 2
B21: IgG1-F1070 (antibody)
heavy: B1 heavy with E388Q, Q440R
light: not shown
notes: EU numbering; copies: 2 + 2
B22: IgG1-F1100 (antibody)
heavy: B1 heavy with S241D, K328D, L330Y, E388Q, V438Y
light: not shown
notes: EU numbering; copies: 2 + 2
B23: IgG1-F1115 (antibody)
heavy: B1 heavy with E388Q, S426N
light: not shown
notes: EU numbering; copies: 2 + 2
B24: IgG1-F1106 (antibody)
heavy: B1 heavy with E388Q, Q440R, S442E
light: not shown
notes: EU numbering; copies: 2 + 2
B25: IgG1-F1075 (antibody)
heavy: B1 heavy with K328D, L330Y, E388Q
light: not shown
notes: EU numbering; copies: 2 + 2
B26: IgG1-F1098 (antibody)
heavy: B1 heavy with S241D, E388Q, V438Y
light: not shown
notes: EU numbering; copies: 2 + 2
B27: IgG1-F1102 (antibody)
heavy: B1 heavy with T309Q, Q313A, K328D, L330Y, E388Q, V438Y
light: not shown
notes: EU numbering; copies: 2 + 2
B28: IgG1-F1069 (antibody)
heavy: B1 heavy with E388Q, Q440E
light: not shown
notes: EU numbering; copies: 2 + 2
B29: IgG1-F1109 (antibody)
heavy: B1 heavy with E388Q, V424T
light: not shown
notes: EU numbering; copies: 2 + 2
B30: IgG1-F1081 (antibody)
heavy: B1 heavy with E388Q, V438N, Q440T
light: not shown
notes: EU numbering; copies: 2 + 2
B31: IgG1-F1074 (antibody)
heavy: B1 heavy with S241D, E388Q
light: not shown
notes: EU numbering; copies: 2 + 2
B32: IgG1-F1064 (antibody)
heavy: B1 heavy with E388Q, V424E
light: not shown
notes: EU numbering; copies: 2 + 2
B33: IgG1-F1104 (antibody)
heavy: B1 heavy with E388Q, V424E, S426R
light: not shown
notes: EU numbering; copies: 2 + 2
B34: IgG1-F1105 (antibody)
heavy: B1 heavy with E388Q, V424S, S426R
light: not shown
notes: EU numbering; copies: 2 + 2
B35: IgG1-F1114 (antibody)
heavy: B1 heavy with E388Q, S442Q
light: not shown
notes: EU numbering; copies: 2 + 2
B36: IgG1-F1094 (antibody)
heavy: B1 heavy with E388Q, V438Y, S444N
light: not shown
notes: EU numbering; copies: 2 + 2
B37: IgG1-F1063 (antibody)
heavy: B1 heavy with E388Q, P389S
light: not shown
notes: EU numbering; copies: 2 + 2
B38: IgG1-F1077 (antibody)
heavy: B1 heavy with K250N, E388Q, V438Y
light: not shown
notes: EU numbering; copies: 2 + 2
B39: IgG1-F1082 (antibody)
heavy: B1 heavy with E388Q, V438Y, Q440N
light: not shown
notes: EU numbering; copies: 2 + 2
B40: IgG1-F1117 (antibody)
heavy: B1 heavy with T252V, T309Q, Q313A, E388Q, S426N
light: not shown
notes: EU numbering; copies: 2 + 2
B41: IgG1-F1066 (antibody)
heavy: B1 heavy with E388Q, V424S
light: not shown
notes: EU numbering; copies: 2 + 2
B42: IgG1-F1067 (antibody)
heavy: B1 heavy with E388Q, S426E
light: not shown
notes: EU numbering; copies: 2 + 2

target: T1, soluble human FcRn complexed with β2-microglobulin (human, UniProt P61769 21-119, limits assumed); test: Biacore SPR, pH 7.0;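 further: test antibodies captured on a Protein L chip with human FcRn flowed over as analyte, KD obtained as the ratio of dissociation to association rate constants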
T1 construct: also called hFcRn
Method: A kinetic analysis of binding between human FcRn and the aforementioned antibodies was carried out using the BIACORE™ T100 or T200 surface plasmon resonance system (GE Healthcare). The antibodies being tested were captured on the CM4 Sensor Chip (GE Healthcare) on which a suitable amount of Protein L (ACTIGEN® protein (Alltech)) was suitably immobilized by amine coupling. Next, diluted human FcRn and a running buffer used as a blank were injected to allow the human FcRn to interact with the antibody captured on the sensor chip. A buffer consisting of 50 mmol/L sodium phosphate, 150 mmol/L NaCl and 0.05% (w/v) polysorbate 20 (Tween 20®) (pH 7.0 or pH 7.4) was used for the running buffer, and each buffer was also used to dilute the human FcRn. 10 mmol/L glycine-HCl (pH 1.5) was used to regenerate the sensor chip. All measurements of binding were carried out at 25° C. The KD(M) of each antibody to human FcRn was calculated based on kinetics parameters, i.e., the association rate constant ka (1/Ms) and the dissociation rate constant kd (1/s) calculated from a sensorgram obtained by the measurement. The BIACORE™ T100 or T200 Evaluation Software (GE Healthcare) was used to calculate each parameter.

Kd	Binder
131 nM	B1
286 nM	B2
61.1 nM	B3
272 nM	B4
282 nM	B5
165 nM	B6
123 nM	B7
65.9 nM	B8
74.4 nM	B9
119 nM	B10
319 nM	B11
123 nM	B12
134 nM	B13
139 nM	B14
345 nM	B15
138 nM	B16
126 nM	B17
120 nM	B18
133 nM	B19
169 nM	B20
173 nM	B21

Kd	Binder
241 nM	B22
135 nM	B23
142 nM	B24
140 nM	B25
258 nM	B26
64.6 nM	B27
139 nM	B28
127 nM	B29
620 nM	B30
132 nM	B31
132 nM	B32
177 nM	B33
154 nM	B34
131 nM	B35
260 nM	B36
143 nM	B37
2030 nM	B38
276 nM	B39
48.7 nM	B40
145 nM	B41
126 nM	B42
